The text below walks through data of doi:10.1101/2022.09.03.506457 (bioRxiv, 2022).

The chains are these.
B1: Methanocaldococcus jannaschii fumarate hydratase β-subunit (enzyme)
chain: MEYTFNKLTKKDVKKLKVGDIVYLNGKIYTARDEAHLKIIEMLKSNEKLPFDLNESIIYHAGPIMKKVNDSWVCVSIGPTTSARMNDVEEEFIKLTNISAIVGKGGMKKELLKTFEDYGVVYLAAPGGCAALLANSVKRVDNVYFLDELGMPEAVWELEVNNFGPLIVAMDSHGNSIYEEVNKKVYEKLNELIGL
B2: Methanocaldococcus jannaschii fumarate hydratase α-subunit (enzyme)
chain: KISDVVVELFREAAIYLPEDVKNALEEAYKKESSEISKNTLKAIIENNKIAEETQVPLCQDTGVPIVFLKIGKNINSSEIMKIIEEIKEGVKKATEEVPLRPNVVHPLTRENFKTNVGLNSPFINIEFDESLDREIEIIAFPKGAGSENMSALKMLKPSDGIEGIKNFVLETIANAGGKPCPPIVVGIGIGGTADVALKLAKKALLRKIGERHRDKEIANLEKELLEKINSLGIGAMGLGGDITALDVFIEIAGCHTASLPVGICIQCWADRRAIKRIKLDAKL
B3: Selenomethionine incorporated Methanocaldococcus jannaschii fumarate hydratase α-subunit (of Se-MjFHαβ) (enzyme)
chain: B2 chain
modifications: selenomethionine incorporated (eleven selenium atoms per functional dimer)

Series [1] concerns the target B2. Put plainly: ITC. In general terms: Isothermal titration calorimetry measures the heat released or taken up as one component is titrated into another.
Series [2] deals with the molecule itself. Put plainly: SEC. Background: In gel filtration, larger molecules generally elute earlier.
Series [3] deals with the molecule itself. In words: crystal structure.

What is called Kd is the constant that tells how readily two partners part at equilibrium. Read a low Kd as a tighter complex. In series [1], B1 showed a Kd of 595 ± 19 nM.
The term stoichiometry N denotes a count of units in the complex or per binding partner. In the case of B2, the “stoichiometry N” value in series [2] came to 2.
Regarding B3, in series [3], the binding result is “binds”.
